Assay results from publication PMC9271825.
“And” between values parts separate entries of the source, which are not always exact repeats. Equal values may be shown once.

Biological target: T1, Human Claudin-7 (Cldn7), wild type, His-tagged (human), O95471
T1 chain: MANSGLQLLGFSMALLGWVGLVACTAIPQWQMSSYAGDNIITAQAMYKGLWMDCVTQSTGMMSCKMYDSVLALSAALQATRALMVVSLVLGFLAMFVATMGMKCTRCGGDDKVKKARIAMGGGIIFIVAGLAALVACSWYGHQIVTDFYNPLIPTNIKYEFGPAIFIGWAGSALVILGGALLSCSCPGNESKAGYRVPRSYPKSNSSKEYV
Assay: SDS-PAGE and Western blot of SDS-stable oligomers; purified Cldn7 (IMAC eluate) on 10% SDS-PAGE, detected with an anti-His-tag antibody
Details: remark: other sources report otherwise

- stoichiometry N: 2 and 3
B1: Human Claudin-7 (Cldn7), wild type, His-tagged, O95471 1-211 (natural protein)
chain: MANSGLQLLGFSMALLGWVGLVACTAIPQWQMSSYAGDNIITAQAMYKGLWMDCVTQSTGMMSCKMYDSVLALSAALQATRALMVVSLVLGFLAMFVATMGMKCTRCGGDDKVKKARIAMGGGIIFIVAGLAALVACSWYGHQIVTDFYNPLIPTNIKYEFGPAIFIGWAGSALVILGGALLSCSCPGNESKAGYRVPRSYPKSNSSKEYV
